Experimental findings from patent US20060182721A1 are described below.

For the experiment, the target named is Notch on human peripheral blood CD14-positive cells (human). In words: cell-based or functional assay.

With “Delta-1 construct composed of the human Delta-1 extracellular domain and 6 myc proteins (from UniProt O00548 18-545) (ligand)”, the level of HES-1 gene expression (real-time RT-PCR, ratio to GAPDH) in CD14-positive cells after 24 hours of culture was 8 times.
